Reference: the nanobody polyreactivity screen of Harvey et al. (2022)

Assay: yeast display, Sf9 membrane polyspecificity reagent, FACS + sequencing; frameworks hold sequencing errors
Outline: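 Using colony PCR, genes from sorted yeast display clones were amplified, then sequenced on MiSeq at 2 × 250 and filtered by CDR length. The clones had been stained with 10% biotinylated, detergent-solubilized Sf9 membrane reagent for 1 hour at 4 °C and sorted by FACS into low and high (top ~1%) gates on anti-HA and streptavidin fluorescence. Polyreactivity labels come from the gate of origin.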

| Sequence | polyreactivity (PSR sort gate) |
| --- | --- |
| QVQLVESGGGLFQAGGSLRLSCAASGSTFGWNAMGWYRHAPGKERELVAAINKSGGRTYYADSVKGRFTISRDNAKNTVYLQMISLKPEDTAVYYCAAVTPIRVTSPDYDYWGQGTQVTVSS | low polyreactivity |
| QVQLVESGGGLVQAGGSLRLSCAASGFTFWDYAMGWYRQAPGKERELVATISSDGSTNYADSVKGRFTISRDNAKNTVYLQMNSLKPEDTAVYYCAADGYLYFWYPYDYWGQGTQVTVSS | low polyreactivity |
| QVQLVESGGGLVQAGGSLRLSCADSGRTFQRHARGWYRKAPGKEREFVAAISKSGGRTYYADSVKGRFTISRDTAKNTVSLQMNSLKPEDTAVYYCNRGSTHDLSHPELYGYWGQGTQVTVSS | high polyreactivity |
| QVQLVESGGGLVQAGGSLRLSCAASGSTFYGYAMGWYRQAPGKERELVAVINYSGGTTSYADSVKGRFTISRDNAKNTVYLQMNSLKPEDTAVYYCAARRRWAILRYRGNYDYWGQGTQVTVSS | high polyreactivity |
| QVQLQESGGGLVQAGGSLRLSCAASGPISRRSTMGWYRQAPGKERELVTAITRGTNTNYADSVKGRFTISRDNAKNTESLQMNSLKPEDTAVYYGAAYGVLKPSRGDAVFHRYWGQGTQVTVSS | low polyreactivity |
| QVQLVESGGGLVQAGGSLRLSCAASGFTFPVNAMGWYRQAPGKERELVATINSGGSTNYADSVKGRFTISRDNAKNTVYLQMNSLKPEDTAVYYCAAVTTDGVYAFDYWGQGTQVTVSS | low polyreactivity |
| QVQLVESGGGLVQAGGSLRLSCAASGLIFSRYAMGWYRQGPGKERELVAASSGGGGSTYYADSVKGRFTISRDNAKNTVYLQMNSLKPEDTAVYYSARKYTRKIPASDYWGQGTQVTVSS | high polyreactivity |
| QVQLVESGGGLVQAGGSLRLSCAASGIIFYLYAMGWYIQAPGKERELVAAISWGGGTTYYADSVKGRFTISRDNAKNTVYLQMNSLKPEDTAVYYCAAETEYYSYRFDYWGQGTQVTVSS | high polyreactivity |
| QVQLVESGGGLVQAGGSLRLSCAASGLIFEYYAMGWYRQAPGKERELVAVINWSGASTYYADSVKGRFTITRDYAKNTVYLQMNSLKPEDTAVYYCAAGVLITGLRFDYWGQGTQVTVSS | low polyreactivity |
| QVQLVESGGGLVQAGGSLRLSCAASGRTFVYNAMGWSRQAPGKERELVAAITSGGSTYYADSVKGRFTISRDNAKNTVYLQMNSLKPEDTAVYYCAAYKRGYYWGQGTQVTVSS | high polyreactivity |
| QVQLVESGGGLVQAGGSLRLSCAASGFILKFYAMGWYRQAPGKERELVAAISRRGGSTYYADSVKGRFTISRDNAKNTVYLQMNSLKPEDTAVYHCAKDGTTSRVSDSSDYWGQGTQVTVSS | high polyreactivity |
| QFQLVESGGGLVQAGGSLRLSCAASGSTFPHYTMGWYRQAPGKERELVAAIRRSAGSTYYADSVKGRFTISRDNAKNTVYLQMNSLKPEDTAVYYCNTRQRPPYLVKLNYWGQGTQVTVSS | high polyreactivity |
| QVQLVESGGGLVQAGGSLRLSCAASGRIFRSNAMGWYRQAPWKERELVATITSSGGRTYYADSVKGRFTISRDNAKNTVYLQMNSLKPEDTAVYYCIAQQRTRGQKAQWVRDEYWGQGTQVTVSS | low polyreactivity |
| QVQLVASGGGLVQAGGSLRISCAASGSIIYYYAMGWYRHAPRKERELVAAISTSSGRTYYADSVKGRFTISRDNAKNTVYLQMNSLKPEDTAVYYCANEIPFTRYTWPRYNYWGQGTQVTVSS | high polyreactivity |
| QVQLVESAGGLVQAGGSLRLSCAASGFTFGDNAMGWYRQAPGKERELVAAITSSGSTNYADSVKGRFTISRDNAKNTVYLQMNSLKPEDTAVYYCNAEDSVDAPVYKDLGSEYDSWGQGTQVTVSS | low polyreactivity |
| QVQLVESGGGLVQAGRSLRLSCAASGRIFKYNAMGWYRQAPGKERELVAVITSGGSTYYADSEKGRFTISRDNAMNTDSLQKNSLKQVDTAVYYCNSPYARYYTRYSAYDYWGQGTQVTVSS | low polyreactivity |
